From publication PMC7141177 (Journal of molecular biology, 2018)

Tests used:
[1] = target: full-length T. gondii apical complex lysine (K) methyltransferase (AKMT, aa1–709) (Toxoplasma gondii); experiment: SEC-MALS
[2] = target: AKMT-ΔNTD-short (aa309–709) (Toxoplasma gondii); experiment: SEC-MALS
AKMT-ΔNTD = AKMT-ΔNTD (Toxoplasma gondii, UniProt B9Q0K5); experiment: isothermal titration calorimetry; format: binding
[3] = target: AKMT-ΔNTD (aa289–709) (Toxoplasma gondii); experiment: SEC-MALS

full-length T. gondii apical complex lysine (K) methyltransferase (AKMT, aa1–709) (enzyme)
stoichiometry N [1]: 2

AKMT-ΔNTD-short (aa309–709) (domain or fragment)
stoichiometry N [2]: 2

Nc1ncnc2c1ncn2[C@@H]1O[C@H](C[C@@H](N)CC[C@H](N)C(=O)O)[C@@H](O)[C@H]1O [sinefungin]
Kd (AKMT-ΔNTD): 260 nM

AKMT-ΔNTD (aa289–709) (domain or fragment)
stoichiometry N [3]: 2
